Assay results as given in article PMC7820951.

Substrate: CC(C)O
Experiment: purified protein
Conditions: alcohol oxidation; cofactor F420

B1: ADF (F420-dependent alcohol dehydrogenase) (Methanoculleus thermophilus) (protein)
chain: MKTQIGYFASLEQYRPMDALEQAIRAEKVGFDSVWVDDHFHPWYHDNAQSAQAWAWMGAALQATKKVFISTCITCPIMRYNPAIVAQTFATLRQMYPGRVGVAVGAGEAMNEVPVTGEWPSVPVRQDMTVEAVKVMRMLWESDKPVTFKGDYFTLDKAFLYTKPDDEVPLYFSGMGPKGAKLAGMYGDHLMTVAAAPSTLKNVTIPKFEEGAREAGKDPSKMEHAMLIWYSVDPDYDKAVEALRFWAGCLVPSMFKYKVYDPKEVQLHANLVHCDTIKENYMCATDAEEMIKEIERFKEAGINHFCLGNSSPDVNFGIDIFKEVIPAVRD
Km: 1.3 mM
kcat: 1.7 s⁻¹
